Reference: patent US20110158985A1 (published 2011)
Values joined by “and” are separate entries in the source; they are usually repeats but may differ in a detail not shown here. Equal values may be shown once. Read-outs that look alike come from different tables or passages of the source.

T1: murine FcRn (mouse, UniProt P01887 21-119)
T1 construct: also called mouse FcRn; muFcRn
T1 sequence: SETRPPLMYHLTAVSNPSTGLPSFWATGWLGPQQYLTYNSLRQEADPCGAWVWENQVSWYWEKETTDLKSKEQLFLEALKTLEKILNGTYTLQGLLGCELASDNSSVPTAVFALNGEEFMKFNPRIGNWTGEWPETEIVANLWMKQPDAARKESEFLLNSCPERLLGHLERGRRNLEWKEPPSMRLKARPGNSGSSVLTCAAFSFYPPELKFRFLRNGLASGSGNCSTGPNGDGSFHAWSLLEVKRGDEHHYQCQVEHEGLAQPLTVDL
T1 sequence (b2m): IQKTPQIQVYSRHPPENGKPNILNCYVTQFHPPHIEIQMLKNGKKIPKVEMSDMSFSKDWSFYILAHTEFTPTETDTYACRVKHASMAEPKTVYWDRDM

T2: RSV F glycoprotein (NUF4) (respiratory syncytial virus)
T2 chain 1: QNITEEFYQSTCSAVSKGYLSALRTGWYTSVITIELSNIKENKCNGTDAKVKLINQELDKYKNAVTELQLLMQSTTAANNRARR
T2 chain 2: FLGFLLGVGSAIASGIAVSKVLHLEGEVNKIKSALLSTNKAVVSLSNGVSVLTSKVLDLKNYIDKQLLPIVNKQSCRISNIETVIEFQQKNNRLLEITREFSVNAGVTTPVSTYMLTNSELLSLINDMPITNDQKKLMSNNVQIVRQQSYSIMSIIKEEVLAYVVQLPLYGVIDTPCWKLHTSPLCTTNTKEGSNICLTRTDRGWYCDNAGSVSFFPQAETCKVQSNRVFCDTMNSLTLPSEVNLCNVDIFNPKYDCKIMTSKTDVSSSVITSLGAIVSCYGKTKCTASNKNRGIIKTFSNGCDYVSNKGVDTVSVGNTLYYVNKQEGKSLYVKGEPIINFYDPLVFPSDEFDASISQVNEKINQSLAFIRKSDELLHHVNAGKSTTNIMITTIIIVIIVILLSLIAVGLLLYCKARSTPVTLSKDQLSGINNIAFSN

B1: palivizumab (IgG) (antibody)
heavy: not shown
light: DIQMTQSPSTLSASVGDRVTITCKCQLSVGYMHWYQQKPGKAPKLLIYDTSKLASGVPSRFSGSGSGTEFTLTISSLQPDDFATYYCFQGSGYPFTFGGGTKLEIKRTVAAPSVFIFPPSDEQLKSGTASVVCLLNNFYPREAKVQWKVDNALQSGNSQESVTEQDSKDSTYSLSSTLTLSKADYEKHKVYACEVTHQGLSSPVTKSFNRGEC
notes: also called SYNAGIS
B2: human IgG1 MEDI-493 (palivizumab) M252Y/S254T/T256E (antibody)
heavy: QVTLRESGPALVKPTQTLTLTCTFSGFSLSTSGMSVGWIRQPPGKALEWLADIWWDDKKDYNPSLKSRLTISKDTSKNQVVLKVTNMDPADTATYYCARSMITNWYFDVWGAGTTVTVSSASTKGPSVFPLAPSSKSTSGGTAALGCLVKDYFPEPVTVSWNSGALTSGVHTFPAVLQSSGLYSLSSVVTVPSSSLGTQTYICNVNHKPSNTKVDKRVEPKSCDKTHTCPPCPAPELLGGPSVFLFPPKPKDTLYITREPEVTCVVVDVSHEDPEVKFNWYVDGVEVHNAKTKPREEQYNSTYRVVSVLTVLHQDWLNGKEYKCKVSNKALPAPIEKTISKAKGQPREPQVYTLPPSREEMTKNQVSLTCLVKGFYPSDIAVEWESNGQPENNYKTTPPVLDSDGSFFLYSKLTVDKSRWQQGNVFSCSVMHEALHNHYTQKSLSLSPGK
light: DIQMTQSPSTLSASVGDRVTITCKCQLSVGYMHWYQQKPGKAPKLLIYDTSKLASGVPSRFSGSGSGTEFTLTISSLQPDDFATYYCFQGSGYPFTFGGGTKLEIKRTVAAPSVFIFPPSDEQLKSGTASVVCLLNNFYPREAKVQWKVDNALQSGNSQESVTEQDSKDSTYSLSSTLTLSKADYEKHKVYACEVTHQGLSSPVTKSFNRGEC
notes: also called IgG1/M252Y/S254T/T256E
B3: A12a6 IgG (antibody, V domains shown)
VH: QVTLRESGPALVKPTQTLTLTCTFSGFSLSTAGMSVGWIRQPPGKALEWLADIWWDGKKDYNPSLKDRLTISKDTSKNQVVLKVTNMDPADTATYYCARDMIFNFYFDVWGQGTTVTVSS
VL: DIQMTQSPSTLSASVGDRVTITCSASSRVGYMHWYQQKPGKAPKLLIYDTFKLSSGVPSRFSGSGSGTEFTLTISSLQPDDFATYYCFQGSGYPFTFGGGTKVEIKR
B4: A4B4 IgG (antibody, V domains shown)
VH: QVTLRESGPALVKPTQTLTLTCTFSGFSLSTAGMSVGWIRQPPGKALEWLADIWWDDKKHYNPSLKDRLTISKDTSKNQVVLKVTNMDPADTATYYCARDMIFNFYFDVWGQGTTVTVSS
VL: DIQMTQSPSTLSASVGDRVTITCSASSRVGYMHWYQQKPGKAPKLLIYDTFFLDSGVPSRFSGSGSGTEFTLTISSLQPDDFATYYCFQGSGYPFTFGGGTKVEIKR
B5: A4B4L1FR-S28R (MEDI-524) (antibody, human IgG1, kappa)
heavy: not shown
light: DIQMTQSPSTLSASVGDRVTITCSASSRVGYMHWYQQKPGKAPKLLIYDTSKLASGVPSRFSGSGSGTEFTLTISSLQPDDFATYYCFQGSGYPFTFGGGTKVEIKRTVAAPSVFIFPPSDEQLKSGTASVVCLLNNFYPREAKVQWKVDNALQSGNSQESVTEQDSKDSTYSLSSTLTLSKADYEKHKVYACEVTHQGLSSPVTKSFNRGEC
B6: P11d4 IgG (antibody, V domains shown)
VH: QVTLRESGPALVKPTQTLTLTCTFSGFSLSTPGMSVGWIRQPPGKALEWLADIWWDGKKHYNPSLKDRLTISKDTSKNQVVLKVTNMDPADTATYYCARDMIFNWYFDVWGQGTTVTVSS
VL: DIQMTQSPSTLSASVGDRVTITCSPSSRVGYMHWYQQKPGKAPKLLIYDTMRLASGVPSRFSGSGSGTEFTLTISSLQPDDFATYYCFQGSGYPFTFGGGTKVEIKR

Experiments:
[1] = target: T3, F protein of RSV (Long strain) (RSV (Long strain), UniProt P12568 26-574); experiment: cell-based or functional assay
[2] = target: T4, recombinant C-terminally truncated RSV (A2 strain) F protein (RSV (A2 strain), UniProt P03420 26-524); experiment: SPR (BIAcore), IgG over immobilised F
T4 construct: extracellular domain; also called truncated F protein; extracellular domain of the F protein from RSV A2

[3] = target: T4, recombinant C-terminally truncated RSV …; experiment: SPR (BIAcore 3000), F immobilised at low density, 1:1 Langmuir fit
Target sequence in this assay (P03420 137-524): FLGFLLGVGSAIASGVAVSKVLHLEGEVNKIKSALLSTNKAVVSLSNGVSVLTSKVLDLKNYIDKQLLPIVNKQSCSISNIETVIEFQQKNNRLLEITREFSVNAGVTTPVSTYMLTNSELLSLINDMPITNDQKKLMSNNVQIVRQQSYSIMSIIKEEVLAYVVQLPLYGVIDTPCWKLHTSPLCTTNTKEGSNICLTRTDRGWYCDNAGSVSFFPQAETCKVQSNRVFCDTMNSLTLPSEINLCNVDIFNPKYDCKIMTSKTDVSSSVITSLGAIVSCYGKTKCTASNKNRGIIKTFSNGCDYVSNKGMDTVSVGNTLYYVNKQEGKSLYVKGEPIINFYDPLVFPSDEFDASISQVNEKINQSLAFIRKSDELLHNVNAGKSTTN
Experimental: Purified F protein was covalently coupled to an N-hydroxysuccinimide-N-ethyl-N′-[3-diethylaminopropyl]-carbodiimide (EDC/NHS) activated CM5 sensor chip at a low protein density according to the manufacturer's protocol; unreacted active ester groups were blocked with 1 M ethanolamine. For reference purposes, a blank surface, containing no antigen, was prepared under identical immobilization conditions.
For kinetic measurements, a serial 2-fold dilution series of each mAb from 100 nm-0.2 nm, made in instrument buffer (HBS/Tween-20, BIAcore, Inc.), was injected over the F-protein and reference cell surfaces, which are connected in series. In each analysis, following the dissociation phase, the remaining bound antibody was removed from the sensor chip by passing a brief pulse of 100 mM HCl over the surface. Once an entire data set was collected, the resulting binding curves were globally fitted to a 1:1 Langmuir binding model using BIAevaluation software (BIAcore, Inc., Piscataway, N.J.). This algorithm calculates both the association rate (kₒₙ) and the dissociation rate (koff), from which the apparent equilibrium binding constant, Kd, for each antibody was deduced as the ratio of the two rate constants, koff/kₒₙ.

[4] = target: T3, F protein of RSV (Long strain); experiment: cell-based or functional assay; remark: listed apart in the source
[5] = target: T1, murine FcRn; experiment: SPR (BIAcore 3000), FcRn over immobilised IgG1, pH 6.0, Scatchard
Experimental: (§1) IgG1 variants was monitored by surface plasmon resonance detection using a BIAcore 3000 instrument (Pharmacia Biosensor, Uppsala, Sweden). […] The protein concentrations ranged from 3-5 μg/ml in 10 mM sodium acetate, pH 5.0. The activation period was set for 7 minutes at a flow rate of 10 μl/min and the immobilization period was set to between 10 and 20 minutes at a flow rate of 10 μl/min. […] Human and murine FcRn were buffer exchanged against 50 mM PBS buffer pH 6.0 containing 0.05% Tween 20. Dilutions were made in the same buffer. All binding experiments were performed at 25° C. with concentrations ranging from 120 to 1 μg/ml at a flow rate of 5 to 10 μl/min; data were collected for 25 to 50 minutes and three 1-minute pulses of PBS buffer pH 7.2 were used to regenerate the surfaces. FcRn was also flowed over an uncoated cell and the sensorgrams from these blank runs subtracted from those obtained with IgG1-coupled chips. Runs were analyzed using the software BIAevaluation 3.1 (Pharmacia). Association constants (KAs) were determined from Scatchard analysis by measuring the concentration of free reactants and complex at equilibrium after correction for nonspecific binding.

[6] = target: T5, human FcRn (human); experiment: as above
T5 construct: also called recombinant human FcRn
Experimental: as §1

[7] = target: T3, F protein of RSV (Long strain); experiment: cell-based or functional assay; remark: listed apart in the source
[8] = target: Bac-F (respiratory syncytial virus); experiment: SPR (BIAcore), mAb vs Bac-F (1:1)
[9] = target: T3, F protein of RSV (Long strain); experiment: cell-based or functional assay; remark: listed apart in the source
[10] = target: T3, F protein of RSV (Long strain); experiment: cell-based or functional assay; remark: listed apart in the source
[11] = target: T1, murine FcRn; experiment: SPR (BIAcore), murine FcRn over immobilised IgG1, Scatchard
Experimental: Runs were analyzed using the software BIAevaluation 3.1 (Pharmacia). Association constants (KAs) were determined from Scatchard analysis by measuring the concentration of free reactants and complex at equilibrium after correction for nonspecific binding. […] The concentration of free analyte (human or murine FcRn) is equal to the bulk analyte concentration since analyte is constantly replenished during sample injection. The concentration of free ligand on the surface of the sensor chip can be derived from the concentration of the complex and from the total binding capacity of the surface as KA=Req/C(Rₘₐₓ−Req) where C is the free analyte concentration, Req is the steady-state response, and Rₘₐₓ is the total surface binding capacity. Rearranging, the equation reads: Req/C=KA Rₘₐₓ−KA Req.
To estimate apparent KAs, concentrations of FcRn ranging from 120 to 1 μg/ml were used. In all cases, equilibrium (or near-equilibrium) binding levels were reached within 50 minutes. To estimate the increase in RU resulting from the non specific effect of protein on the bulk refractive index, binding of FcRn to an uncoated cell was measured and the sensorgrams from these blank runs subtracted from those obtained with IgG1-coupled chips. The plots were all linear, and apparent KAs were calculated from the relevant slopes. […]

[12] = target: T2, RSV F glycoprotein (NUF4); experiment: SPR (BIAcore), mAb vs NUF4 (1:1)
[13] = target: T4, recombinant C-terminally truncated RSV …; experiment: SPR (BIAcore)
Target sequence in this assay (P03420 137-524): as above

[14] = target: T2, RSV F glycoprotein (NUF4); experiment: SPR (BIAcore), mAb vs NUF4 (2:1)
[15] = target: T2, RSV F glycoprotein (NUF4); experiment: ITC, NUF4 titrated into antibody, 35 C
Experimental: The binding thermodynamics of the antibodies were determined from ITC measurements using a Microcal, Inc. VP Titration Calorimeter. The VP titration calorimeter consists of a matched pair of sample and reference vessels (1.409 ml) enclosed in an adiabatic enclosure and a rotating stirrer-syringe for titrating ligand solutions into the sample vessel. The ITC measurements were performed at 25° C. and 35° C. The sample vessel contained the antibody in the phosphate buffer while the reference vessel contained just the buffer solution. The phosphate buffer solution was saline 67 mM PO₄ at pH 7.4 from HyClone, Inc. Five or ten μl aliquots of the 0.05 to 0.1 mM NUF4 solution were titrated 3 to 4 minutes apart into the antibody sample solution until the binding was saturated as evident by the lack of a heat exchange signal. […] This was attributed to a heat of dilution of the NUF4 titrant and was subtracted from the titrant heats obtained during the titration prior to analysis of the data.
A non-linear, least square minimization software program from Microcal, Inc., Origin 5.0, was used to fit the incremental heat of the ith titration (ΔQ (i)) of the total heat, Qₜ, to the total titrant concentration, Xₜ, according to the following equations (I),

[16] = target: T4, recombinant C-terminally truncated RSV …; experiment: SPR (BIAcore), IgG over immobilised F; remark: listed apart in the source
Target sequence in this assay (P03420 137-524): as above

[17] = target: T6, Cynomolgus Monkey FcRn (Cynomolgus Monkey, UniProt Q8SPV9 24-290; Q8SPW0 21-119); experiment: SPR (BIAcore 3000), FcRn over immobilised IgG, pH 6.0, one-site fit
T6 construct: also called Cynomolgus FcRn
Experimental: (§2) Human and Cynomolgus Monkey FcRn were buffer-exchanged against 50 mM Phosphate Buffered Saline (PBS) pH 6.0 or 7.4 containing 0.05% Tween 20. Dilutions were made in the same buffers. […] FcRn was also flowed over an uncoated cell and the sensorgrams from these blank runs subtracted from those obtained with IgG-coupled chips. Runs were analyzed using the software BIAevaluation 3.1 (Pharmacia). Dissociation constants (Kds) were determined by fitting the binding isotherms to a one-site binding model using GraphPad Prism (GraphPad Software, Inc., CA). Errors were estimated as the mean standard deviation for at least 2 independent determinations.

[18] = target: T5, human FcRn; experiment: as above
Experimental: as §2

T5 sequence (chain, as listed by the source limits assumed, chain 1 of 2): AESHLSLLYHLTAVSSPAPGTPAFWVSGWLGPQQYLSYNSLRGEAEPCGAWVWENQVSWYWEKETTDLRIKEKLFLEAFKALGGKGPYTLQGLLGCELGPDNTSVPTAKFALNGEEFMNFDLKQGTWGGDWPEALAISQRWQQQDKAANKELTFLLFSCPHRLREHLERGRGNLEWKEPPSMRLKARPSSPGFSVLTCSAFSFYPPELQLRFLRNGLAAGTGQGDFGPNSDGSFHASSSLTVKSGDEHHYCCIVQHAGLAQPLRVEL
T5 sequence (P61769 21-119 limits assumed, chain 2 of 2): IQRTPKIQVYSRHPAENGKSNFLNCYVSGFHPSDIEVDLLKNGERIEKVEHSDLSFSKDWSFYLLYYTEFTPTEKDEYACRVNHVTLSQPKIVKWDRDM
T6 sequence (Q8SPV9 24-290 limits assumed, chain 1 of 2): as the sequence (chain, as listed by the source limits assumed, chain 1 of 2) above, with N39D, E44Q, G99S, S189G, S190N, L217M counted along it
T6 sequence (Q8SPW0 21-119 limits assumed, chain 2 of 2): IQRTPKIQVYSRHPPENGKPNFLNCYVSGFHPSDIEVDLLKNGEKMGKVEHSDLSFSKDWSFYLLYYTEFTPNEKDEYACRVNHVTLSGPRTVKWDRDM

Binder	Mean IC50 (Control) [1] [µg/mL]	Mean IC50 (Curve) [1] [µg/mL]	Kd [2] [nM]	RSV microneutralization, average IC50 [4] [µg/mL]	Kd [5] [nM]	Microneutralization IC50, IgG [7]	Kd [8] [nM]	koff [2] [s⁻¹]	kon [2] [M⁻¹ s⁻¹]	Kd [12] [nM]	fold in parentheses (palivizumab = 1) [12] [fold]	koff [12] [s⁻¹]	kon [12] [M⁻¹ s⁻¹]	Kd [14] [nM]	fold in parentheses (palivizumab = 1) [14] [fold]	koff [14] [s⁻¹]	kon [14] [M⁻¹ s⁻¹]	fold in parentheses (palivizumab = 1) [8] [fold]	fold improvement in kon over palivizumab [16] [fold]	also measured
B1	0.535	0.453	3.39	0.315	269	0.453 µg/ml and 3.02 nM	3.9													Kd [3]: 3.46 nM; Microneutralization IC50 [4]: 3.6 nM; Kd [6]: 2530 nM; Microneutralization IC50, IgG [9]: 0.453 µg/ml and 3.02 nM; IC50 [10]: 3.57 nM
B2					27															ΔΔG [5]: 1.4 kcal/mol; Kd [11]: 24 nM
B3	0.0354	0.0357	0.036			0.0357 µg/ml and 0.24 nM	0.04	1.65e-05	460000	0.73	12	0.000291	400000	1.87	167	0.000408	218000	98		fold improvement in koff upon IgG conversion (against its Fab) [13]: 13 fold
B4	0.0154	0.0171	0.027			0.104 µg/ml and 0.069 nM		1.51e-05	553000	0.57	15	0.000282	496000	2	156	0.000401	203000		4	Ka [15]: 2.69e+08 M⁻¹; Kd [15]: ~3.7 nM; ΔHb [15]: 22.2 kcal/mol; fold improvement in affinity over palivizumab [16]: 125 fold; fold improvement in koff over palivizumab [16]: 28 fold
B5				0.018																Kd [17]: 1200 nM; Kd [18]: 2250 nM
B6	0.0289	0.0217	0.62			0.0217 µg/ml and 0.14 nM	0.62	0.000289	466000	0.85	10	0.000766	904000	8.55	36	0.00313	366000	6	4	
